Assay results published in article PMC8752837, “Structural basis of BAK activation in mitochondrial apoptosis initiation” (Nature Communications, 2022).

Experiments:
Type in all cases: cell-based, human
[1] = tested on: BCL2allKO HCT116 cells reconstituted with mC-BAK; test: Endpoint FACS analysis of SYTOX Green positive cells; details: average, N = 3
Protocol: (§1) We seeded cells in 24-well (100,000 cells/well), 96-well (15,000 cells/well), or 384-well (10,000 cells/well) plates coated with 10 µg/mL fibronectin. After ≥24 h of attachment and recovery, we induced cell death with Dox (up to 1000 ng/mL) and monitored SYTOX Green (25 nM) uptake by Incucyte imaging. This dye marks cells with compromised plasma membrane integrity. mC-BAK expressed before 24 h, which coincided with detectable cell death. We monitored Incucyte imaging for up to 48 h, followed by endpoint FACS analysis to measure the extent of cell death based on SYTOX Green positive cells on FACSCalibur systems (BD Biosciences). As expected, cells with low mCherry fluorescence were refractory to cell death.

[2] = tested on: bak−/− bax−/− HCT116 cells; test: Apoptosis initiated by actinomycin D and TRAIL + CHX in cells constitutively expressing BAK; details: constitutive pMX-BAK-IRES-GFP
Description: We enriched for GFP positive cell populations by up to four rounds of sorting. Cells were used in apoptosis assays. […]
and doxycycline (Dox)-inducible mC-BAK. d, Representative i mmunoblot for BID and sypro red staining of BCL2allKO HCT116 cells expressing V74A and D83A mC-BAK and BID from n=2 independent experiments. e, Representative immunoblot of bak-/- bax- […]
from n=2 independent experiments . GFP positive cells were sorted three and four times to achieve similar expression levels. […]
human TRAIL and cycloheximide (CHX).
Data are presented as mean + SD for one representative of n=2 experiments each of n=3 technical replicates. g, Experimental […]
BAK (mC-BAK) monitored for 48 hr by IncuCyte imaging uptake of cell-impermeable dye SYTOX Green. AUC for kinetic traces is included. At 48 hr, we quantified percentage of SYTOX Green +ve cells (%) by fluorescence activated cell sorting (FACS). Data are presented as mean + SD from one of n=3 experiments each of n=3

[3] = tested on: BCL2allKO HCT116 cells reconstituted with Dox-inducible mC-BAK; test: Dox-induced cell death by IncuCyte imaging of SYTOX Green uptake (autoactivation); details: for SYTOX Green +ve counts/confluence AUC of kinetic traces: Fig 3d; for AUC (48 hr) of SYTOX Green counts/confluence: mC-BAK BCL2allKO HCT116 + Dox + qVD, average, N = 3
Description: For mammalian cell culture experiments, we cloned the full length human BAK cDNA into pCR 2.1 TOPO vector, mutated BAK as needed, and PCR amplified the BAK gene for cloning into the BamHI and NotI sites of pRETROX mCherry vector for retroviral transduction. Amplification and mutagenesis primers are included in Supplementary Table 4. To test direct BAK activation and BAK autoactivation in cells, we produced cells stably expressing mCherry-human BAK (mC-BAK) ± human BID (BID) on a genetic background devoid of the entire BCL-2 family repertoire (all 17 BCL-2 genes), BCL2allKO HCT116, as described by the Xu Luo laboratory. We expressed WT and mutant mC-BAK using the doxycycline (Dox)-based inducible Tet-On 3G retroviral system from the pRetroX-TRE3G-Puro^R in BCL2allKO HCT116 cells expressing the Tet3G from pRetroX-Tet3G-Blast^R. We selected cells with puromycin (2.5 µg/mL) and blasticidin (2 µg/mL) starting at 2 days after retroviral transduction. To enrich for populations of cells that express mC-BAK, we treated cells with low Dox dose (25 ng/mL) and fluorescence-activated cell sorted (FACS) the mCherry positive cells. We performed the enrichment twice before cell death analysis. One caveat of our cellular system is tagging BAK with N-terminal mCherry, which may affect folding efficiency, degradation, and BAK interactome.
as §1

B1: V74A (1): BAK missense mutant, WT-like; in cells as mCherry fusion (protein)
chain: MASGQGPGPPRQECGEPALPSASEEQVAQDTEEVFRSYVFYRHQQEQEAEGVAAPADPEMVTLPLQPSSTMGQAGRQLAIIGDDINRRYDSEFQTMLQHLQPTAENAYEYFTKIATSLFESGINWGRVVALLGFGYRLALHVYQHGLTGFLGQVTRFVVDFMLHHCIARWIAQRGGWVAALNLGNG
modifications: left off: His6, C-terminal, kept
notes: BAK missense mutant, WT-like; in cells as mCherry fusion
In the case of B1, the “flow cytometry SYTOX Green counts/confluence (48 hr)” value ([1]; Dox 100 ng/mL) is reported as 40.5, the “flow cytometry SYTOX Green counts/confluence (48 hr)” value ([1]; Dox 1000 ng/mL) is reported as 46.1667 and the “response to apoptotic inducers actinomycin D and TRAIL + CHX” value [2] is reported as “respond similarly”. The “SYTOX Green +ve counts/confluence AUC of kinetic traces” value (“SYTOX Green +ve counts/confluence AUC” below) ([3]; Dox 6.25 ng/mL) was 290.31, the “SYTOX Green +ve counts/confluence AUC” value ([3]; Dox 6.25 ng/mL + qVD) was 201.143 and the “SYTOX Green +ve counts/confluence AUC” value ([3]; Dox 12.5 ng/mL) was 574.561. For the same molecule, the “SYTOX Green +ve counts/confluence AUC” value ([3]; Dox 12.5 ng/mL + qVD) was 218.508, the “SYTOX Green +ve counts/confluence AUC” value ([3]; Dox 25 ng/mL) was 828.325 and the “SYTOX Green +ve counts/confluence AUC” value ([3]; Dox 25 ng/mL + qVD) was 220.818. The “SYTOX Green +ve counts/confluence AUC” value ([3]; Dox 50 ng/mL) was 1653.15, the “SYTOX Green +ve counts/confluence AUC” value ([3]; Dox 50 ng/mL + qVD) was 333.116 and the “SYTOX Green +ve counts/confluence AUC” value ([3]; Dox 100 ng/mL) was 2313.65. The “SYTOX Green +ve counts/confluence AUC” value ([3]; Dox 100 ng/mL + qVD) was 342.619, the “SYTOX Green +ve counts/confluence AUC” value ([3]; Dox 500 ng/mL) was 2761.33 and the “SYTOX Green +ve counts/confluence AUC” value ([3]; Dox 500 ng/mL + qVD) was 584.364. For the same molecule, the “SYTOX Green +ve counts/confluence AUC” value ([3]; Dox 1000 ng/mL) was 2775.53, the “SYTOX Green +ve counts/confluence AUC” value ([3]; Dox 1000 ng/mL + qVD) was 699.139 and the Dox-induced cell death ([3]; IncuCyte SYTOX Green up to 48 h) was “induces cell death faster than I81A(3) or D83A(s) irrespective of Dox dose”. The “AUC (48 hr) of SYTOX Green counts/confluence” value ([3]; Dox 100 ng/mL) was 79832.2 and the “AUC (48 hr) of SYTOX Green counts/confluence” value ([3]; Dox 1000 ng/mL) was 98530.5.
